# Laboratory results: the supplement of paper PMC12783771
# ± gives the standard deviation of the averaged measurements.
# B1: library; numbered along this chain (parent)
# chain: MNIQIGELAKRTACPVVTIRFYEQEGLLPPPGRSRGNFRLYGEEHVERLQFIRHCRSLDMPLSDVRTLLSYRKRPDQDCGEVNMLLDEHIRQVESRIGALLELKHHLVELREACSGARPAQSCGILQGLSDCVCDTRGTTAHPSD
# Tests used:
# [1] = variants of: B1; experiment: sfGFP reporter fluorescence (15 h) (µM FITC); higher = higher leak; details: library round: Round 1; ligand: none
# Experimental: (§1)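 Cell-free biosensing: 1 µL Echo-assembled CFE reactions with linear PbrR variant templates (5 nM) and pPbrR-sfGFP reporter, with 1 µM Pb, 30 µM Zn or no ligand; endpoint sfGFP fluorescence after 15 h at 30 °C calibrated as µM FITC. Round 1 ML-predicted PbrR mutants; 3 biological replicates.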
# [2] = variants of: B1; experiment: sfGFP reporter fluorescence (15 h) (µM FITC); higher = stronger transcriptional activation; details: library round: Round 1
# Experimental: as §1
variant,measurement,setting,value
MNIQIGELAKRTACPVVTIRFYEQEGLLPPPGRSRGNFRLYGEEHVERLQFIRHCRSLDMPLSDVRTLLSYRKRPDQDCGEVNMLLDEHIRQVESRIGALLELKHHLVELREACSGARPAQSCGILQGLSTCVCATRGTTAHPSD [D131T D135A],sfGFP reporter fluorescence,[1],0.0636 ± 0.0011
same,sfGFP reporter fluorescence,[2]; ligand: 1 µM Pb,0.08075 ± 0.00021
same,sfGFP reporter fluorescence,[2]; ligand: 30 µM Zn,0.365 ± 0.0092
MNIQIGELAKRTACPVVTIRFYEQEGLLPPPGRSRGNFRLYGEEHVERLQFIRHCRSLDMPLSDVRTLLSYRKRPDQDCGEVTMLLDEHIRQVESRIGALLELKHHLVELRHACSGARPAQSCGILQGLSDCVCDTRGTTAHPSD [N83T E112H],sfGFP reporter fluorescence,[1],0.0643 ± 0.0027
same,sfGFP reporter fluorescence,[2]; ligand: 1 µM Pb,0.0795 ± 0.0037
same,sfGFP reporter fluorescence,[2]; ligand: 30 µM Zn,0.112 ± 0.0026
MNIQIGELAKRTACPVVTIRFYEQEGLLPPPGRSRGNFRLYGEEHVERLQFIRHCRSLDMDLSKVRTLLSYRKRPDQDCGEVNMLLDEHIRQVESRIGALLELKHHCVELREACSGARPAQSCGILQGLSDCVCDTRGTTAHPSD [P61D D64K L107C],sfGFP reporter fluorescence,[1],1.58 ± 0.082
same,sfGFP reporter fluorescence,[2]; ligand: 1 µM Pb,1.54 ± 0.35
same,sfGFP reporter fluorescence,[2]; ligand: 30 µM Zn,2.2 ± 0.1
MNIQIGELAKRTACPVVTIRFYEQEGLLPPPGRSRGNFRLYGEEHVERLQFIRHCRSLDMPLSDVRTLLSYRKRPDQDCGEVSMLLDEHIRQVESRIGALLELKHHLVELREACSGARPAQSCGILQGLSDCVCATRGTTAHPSD [N83S D135A],sfGFP reporter fluorescence,[1],0.0628 ± 0.0014
same,sfGFP reporter fluorescence,[2]; ligand: 1 µM Pb,0.0731 ± 0.0064
same,sfGFP reporter fluorescence,[2]; ligand: 30 µM Zn,0.219 ± 0.026
MNIQIGELAKRTACPVVTIRFYEQEGLLPPPGRSRGNFRLYGEEHVERLQFIRHCRSLDMPLSKVRTLLSYRKRPDQDCGEVNMLLDEHIRQVESRIGALLELKHHLVELREACSGARPAQSCGILQGLSACVCDTRGTTAHPSD [D64K D131A],sfGFP reporter fluorescence,[1],0.131 ± 0.0097
same,sfGFP reporter fluorescence,[2]; ligand: 1 µM Pb,0.37 ± 0.032
same,sfGFP reporter fluorescence,[2]; ligand: 30 µM Zn,1.76 ± 0.11
MNIQIGELAKRTACPVVTIRFYEQEGLLPPPGRSRGNFRLYGEEHVERLQFIRHCRSLDMPLSKVRTLLSYRKRPDQDCGEVNMLLDEHIRQVESRIGALLELKHHLVELREACSGARPAQSCGILQGLSDCVCYTRGTTAHPSD [D64K D135Y],sfGFP reporter fluorescence,[1],0.149 ± 0.014
same,sfGFP reporter fluorescence,[2]; ligand: 1 µM Pb,0.386 ± 0.028
same,sfGFP reporter fluorescence,[2]; ligand: 30 µM Zn,1.09 ± 0.15
MNIQIGELAKRTACPVVTIRFYEQEGLLPPPGRSRGNFRLYGEEHVERLQFIRHCRSLDMNLSAVRTLLSYRKRPDQDCGEVNMLLDEHIRQVESRIGALLELKHHLVELREACSGARPAQSCGILQGLSDCVCDTRGTTAHPSD [P61N D64A],sfGFP reporter fluorescence,[1],0.0855 ± 0.0012
same,sfGFP reporter fluorescence,[2]; ligand: 1 µM Pb,0.183 ± 0.013
same,sfGFP reporter fluorescence,[2]; ligand: 30 µM Zn,1.07 ± 0.098
MNIQIGELAKRTACPVVTIRFYEQEGLLPPPGRSRGNFRLYGEEHVERLQFIRHCRSLDMPLSDVRTLLSYRKRPDQDCGEVTMLLDEHIRQVESRIGALLELKHHLVELREACSGARPAQSCGILQGLSACVCDTRGTTAHPSD [N83T D131A],sfGFP reporter fluorescence,[1],0.0649 ± 0.0029
same,sfGFP reporter fluorescence,[2]; ligand: 1 µM Pb,0.0917 ± 0.0025
same,sfGFP reporter fluorescence,[2]; ligand: 30 µM Zn,0.169 ± 0.016
MNIQIGELAARTACPVVTIRFYEQEGLLPPPGRSRGNFRLYGEEHTERLQFIRHCRSLDMPLSDVRTLLSYRKRPDQDCGEVNMLLDEHIRQVESRIGALLELKHHLVELREACSGARPAQSCGILQGLSDCVTDTRGTTAHPSD [K10A V46T C134T],sfGFP reporter fluorescence,[1],0.0627 ± 0.0013
same,sfGFP reporter fluorescence,[2]; ligand: 1 µM Pb,0.0699 ± 0.0061
same,sfGFP reporter fluorescence,[2]; ligand: 30 µM Zn,0.226 ± 0.021
MNIQIGELAKRTACPVVTIRFYEQEGLLPPPGRSRGNFRLYGEEHVERLQFIRHCRSLDMPLSDVRTLLSYRKRPDQDCGEVNMLLDEHIRQVESRIGALLELKHHLVLLREACSGARPAQSCGILQGLSDCVCPTRGTTAHPSD [E109L D135P],sfGFP reporter fluorescence,[1],0.0655 ± 0.0031
same,sfGFP reporter fluorescence,[2]; ligand: 1 µM Pb,0.102 ± 0.0041
same,sfGFP reporter fluorescence,[2]; ligand: 30 µM Zn,0.497 ± 0.027
MNIQIGELAKRTACPVVTIRFYEQEGLLPPPGRSRGNFRLYGEEHVERLQFIRHCRSLDMPLSDVRTLLSYRKRPDQDCGEVNMLLDEHIRQVESRIGALLELKHHLVELREACSGARPAQSCGILQLLSDCVEDTRGTTAHPSD [G128L C134E],sfGFP reporter fluorescence,[1],0.0749 ± 0.0015
same,sfGFP reporter fluorescence,[2]; ligand: 1 µM Pb,0.135 ± 0.0039
same,sfGFP reporter fluorescence,[2]; ligand: 30 µM Zn,1.36 ± 0.11
MNIQIGELAKRTACPVVTIRFYEQEGLLPPPGRSRGNFRLYGEEHVERLQFIRHCRSLDMPLSDVRTLLSYRKRPDQDCGEVNMYLDEHIRQVESRIGALLELVHHLVELREACSGARPAQSCGILQGLSDCVCDTRGTTAHPSD [L85Y K104V],sfGFP reporter fluorescence,[1],0.0606 ± 0.0011
same,sfGFP reporter fluorescence,[2]; ligand: 1 µM Pb,0.0629 ± 0.0018
same,sfGFP reporter fluorescence,[2]; ligand: 30 µM Zn,0.223 ± 0.011
MNIQIGELAKRTACPVVTIRFYEQEGLLPPPGRSRGNFRLYGEEHVERLQFIRHCRSLDMPLSDVRTLLSYRKRPDQDCGEVNMLLDEHIRQVESRIGALLELVHHLVELREACSGARPAQSCGILQMLSDCVCATRGTTAHPSD [K104V G128M D135A],sfGFP reporter fluorescence,[1],0.103 ± 0.0031
same,sfGFP reporter fluorescence,[2]; ligand: 1 µM Pb,0.291 ± 0.048
same,sfGFP reporter fluorescence,[2]; ligand: 30 µM Zn,1.8 ± 0.11
MNIQIGELAKRTACPVVTIRFYEQEGLLPPPGRSRGNFRLYGEEHVERLQFIRHCRSLDMNLSDVRTLLSYRKRPDQDCGEVNMLLDEHIRQVASRIGALLELKHHLVELREACSGARPAQSCGILQGLSDCVCDTRGTTAHPSD [P61N E94A],sfGFP reporter fluorescence,[1],0.0757 ± 0.0021
same,sfGFP reporter fluorescence,[2]; ligand: 1 µM Pb,0.15 ± 0.0094
same,sfGFP reporter fluorescence,[2]; ligand: 30 µM Zn,0.977 ± 0.065
